# Data reported in patent publication US11827699 (dated 2023).
# Changes are numbered by the printed parent chain.
# T1: human FcγRIIb (human, UniProt P31994)
# T1 chain: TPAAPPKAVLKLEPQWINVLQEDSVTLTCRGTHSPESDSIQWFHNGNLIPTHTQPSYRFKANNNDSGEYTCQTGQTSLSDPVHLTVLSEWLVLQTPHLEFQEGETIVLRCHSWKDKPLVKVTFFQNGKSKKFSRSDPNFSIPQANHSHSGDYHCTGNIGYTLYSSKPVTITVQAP
# T2: human FcγRIa (human, UniProt P12314)
# T2 chain: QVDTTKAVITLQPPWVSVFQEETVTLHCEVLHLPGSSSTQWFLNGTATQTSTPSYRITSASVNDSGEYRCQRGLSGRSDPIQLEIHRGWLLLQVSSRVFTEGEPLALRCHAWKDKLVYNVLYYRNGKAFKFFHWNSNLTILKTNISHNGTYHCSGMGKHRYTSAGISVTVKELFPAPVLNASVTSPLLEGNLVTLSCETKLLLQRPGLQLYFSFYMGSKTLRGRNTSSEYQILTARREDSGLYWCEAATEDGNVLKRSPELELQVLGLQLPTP
# T3: human FcγRIIa R131 (human, UniProt P12318)
# T3 chain: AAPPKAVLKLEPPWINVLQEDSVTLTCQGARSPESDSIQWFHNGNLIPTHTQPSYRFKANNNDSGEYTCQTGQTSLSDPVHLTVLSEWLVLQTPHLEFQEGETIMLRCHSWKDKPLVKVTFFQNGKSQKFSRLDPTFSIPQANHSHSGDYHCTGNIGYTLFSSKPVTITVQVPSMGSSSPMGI
# T4: human FcγRIIa H131 (human, UniProt P12318)
# T4 chain: T3 chain with R132H
# B1: IL6R-BP489 (antibody)
# chain 1: QVQLQESGPGLVKPSETLSLTCAVSGHSISHDHAWSWVRQPPGEGLEWIGFISYSGITNYNPSLQGRVTISRDNSKNTLYLQMNSLRAEDTAVYYCARSLARTTAMDYWGEGTLVTVSSASTKGPSVFPLAPSSKSTSGGTAALGCLVKDYFPEPVTVSWNSGALTSGVHTFPAVLQSSGLYSLSSVVTVPSSSLGTQTYICNVNHKPSNTKVDKKVEPKSCDKTHTCPPCPAPDLLGDDSVFLFPPKPKDTLMISRTPEVTCVVIDVAEEDGEVKFNWYVDGVEVHNAKTKPREEQDNSTYRVVSVLTVLHQDWLNGKEYKCKVSNKALPRPIEKTISKAKGQPREPQVYTLPPSRDELTKNQVSLTCLVKGFYPSDIAVEWESNGQPENNYKTTPMVLDSDGSFFLYSKLTVDKSRWQQGNVFSCSVMHEALHNHYTQESLSLSP
# chain 2: not shown
# B2: IL6R-BP483 (antibody)
# chain 1: B1 chain 1 with I266V, V268L, D298Y, R332A, M398P
# chain 2: not shown
# B3: IL6R-BP510 (antibody)
# chain 1: B1 chain 1 with D235E, E274P, D298Y, M398P
# chain 2: not shown
# B4: IL6R-BP480 (antibody)
# chain 1: B1 chain 1 with I266V, V268L, A269S, E271D, D298Y, R332A, M398P
# chain 2: not shown
# B5: IL6R-BP499 (antibody)
# chain 1: B1 chain 1 with M398L
# chain 2: not shown
# B6: IL6R-BP428 (antibody)
# chain 1: B1 chain 1 with I266V, A269G, D298Y, M398P
# chain 2: not shown
# B7: IL6R-BP490 (antibody)
# chain 1: B1 chain 1 with D235E, D298Y, M398P
# chain 2: not shown
# B8: IL6R-BP445 (antibody)
# chain 1: B1 chain 1 with D298Y, M398P
# chain 2: not shown
# B9: IL6R-BP264 (antibody)
# chain 1: B1 chain 1 with I266V, A269S, M398P
# chain 2: not shown
# B10: IL6R-BP438 (antibody)
# chain 1: B1 chain 1 with I266V, D298Y, I334T, M398P
# chain 2: not shown
# B11: IL6R-BP268 (antibody)
# chain 1: B1 chain 1 with I266V, A269S, R332A, M398P
# chain 2: not shown
# B12: IL6R-BP507 (antibody)
# chain 1: B1 chain 1 with E274P, D298Y, M398P
# chain 2: not shown
# B13: IL6R-BP504 (antibody)
# chain 1: B1 chain 1 with E274P, D298Y, R332A, M398P
# chain 2: not shown
# B14: IL6R-BP506 (antibody)
# chain 1: B1 chain 1 with E274P, M398P
# chain 2: not shown
# B15: IL6R-BP505 (antibody)
# chain 1: B1 chain 1 with E274D, D298Y, R332A, M398P
# chain 2: not shown
# Experiments:
# Assay in all cases: SPR
# human FcγRIIb = target: T1, human FcγRIIb
# human FcγRIa = target: T2, human FcγRIa
# human FcγRIIa R131 = target: T3, human FcγRIIa R131
# human FcγRIIIa V158 = human FcγRIIIa V158 (human, UniProt P08637)
# human FcγRIIIa V158, sequence (P08637 17-208 F176V): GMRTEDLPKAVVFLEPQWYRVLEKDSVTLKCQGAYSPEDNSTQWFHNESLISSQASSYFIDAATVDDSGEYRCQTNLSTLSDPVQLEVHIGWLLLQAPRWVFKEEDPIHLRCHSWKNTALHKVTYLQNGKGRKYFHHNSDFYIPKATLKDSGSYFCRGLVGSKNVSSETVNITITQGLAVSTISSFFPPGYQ
# human FcγRIIa H131 = target: T4, human FcγRIIa H131
Binder,Kd (human FcγRIIb),Kd (human FcγRIa),Kd (human FcγRIIa R131),Kd (human FcγRIIIa V158),Kd (human FcγRIIa H131)
B1,1 nM,1.3 nM,43 nM,12000 nM,870 nM
B2,78 nM,1.3 nM,1300 nM,25000 nM,18000 nM
B3,3.8 nM,6 nM,,25000 nM,4000 nM
B4,200 nM,,6300 nM,46000 nM,21000 nM
B5,1.5 nM,1.2 nM,49 nM,12000 nM,1000 nM
B6,,,390 nM,,32000 nM
B7,2.4 nM,4.5 nM,110 nM,23000 nM,
B8,2.6 nM,2 nM,80 nM,24000 nM,
B9,,7.4 nM,350 nM,26000 nM,2800 nM
B10,,,180 nM,,1600 nM
B11,92 nM,4.5 nM,,28000 nM,21000 nM
B12,2.9 nM,2.6 nM,100 nM,26000 nM,
B13,24 nM,1.4 nM,450 nM,34000 nM,16000 nM
B14,3.4 nM,3.1 nM,120 nM,55000 nM,
B15,21 nM,1.1 nM,430 nM,38000 nM,11000 nM
